± gives the standard deviation of the averaged measurements.
Test system: ATP
Test: switch fluorescence ratio, 500 uM ATP over buffer (Cy3 cluster intensity, sum of 5 cycles each) (fold (ratio)); higher = stronger signal-on switching upon ATP binding; sequences stand for … in TCGTCGGCAGCGTCAGATGTGTATAAGAGACAGTTTTTTTTTTTTTTTTTTTTTTTTT…TC
Settings: aptamer strand: ATP DNA aptamer (quencher-CACCTGGGGGAGTATTGCGGAGGAAGG + anchor), 100 nM annealed; ATP concentration: 500 uM
In short: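 Values give the fluorescence ratio for each switch-domain sequence, averaged from per-cluster ratios of summed target-cycle to summed buffer-cycle Cy3 intensity. The Cy3-labelled switching-strand clusters sat on a modified Illumina MiSeq flow-cell, were annealed to 100 nM quencher-labelled ATP aptamer, and were imaged in selection buffer, then after 15 min with 500 uM ATP at 22 °C. Five cycles ran with NaOH stripping and re-annealing between them, and clusters outside 100-1000 RFU were excluded.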
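Note: ATP exposure 15 min at 22 °C before imaging.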

Row | Sequence | switch fluorescence ratio
1 | AATTGGGGGC | 0.98 ± 0.022
2 | CGGTAGTGAG | 1.04 ± 0.014
3 | GGCTTTTGTA | 0.972 ± 0.019
4 | TCATTTTTAC | 1.049 ± 0.0072
5 | AAGCGGCGGG | 1.01 ± 0.019
6 | TAGGGTATTT | 0.987 ± 0.023
7 | TGGAGTGGAG | 0.989 ± 0.023
8 | GGAGGGGGTA | 1.01 ± 0.016
9 | CGTACCGGGT | 1.01 ± 0.022
10 | TTGAAGCAGC | 1.45 ± 0.2
11 | AGCGAGTTTT | 1.01 ± 0.012
12 | GCATAGGTTA | 1 ± 0.015
13 | TGGGTGCGTC | 0.988 ± 0.014
14 | AGGTAGGGGA | 1.01 ± 0.041
15 | CGCTAGGGTA | 1.04 ± 0.036
16 | AAAGGAGAGC | 0.973 ± 0.087
17 | GGGTTTAAGG | 1.02 ± 0.015
18 | GACTCTACGG | 1.05 ± 0.032
19 | GGTGTCAGCT | 0.967 ± 0.038
20 | TTTTTGGTAC | 1.05 ± 0.076
21 | TCATTGAGCG | 0.981 ± 0.04
22 | AAATACTTGG | 1.04 ± 0.055
23 | TTATTGGAGC | 0.981 ± 0.015
24 | TAGAATATAG | 0.991 ± 0.0011
25 | TGGGAAGGGT | 0.996 ± 0.059

Row | Sequence | switch fluorescence ratio
26 | TTGTCGCTGT | 1.14 ± 0.19
27 | TGTGGTGTGT | 1 ± 0.03
28 | GTAGAGGGGA | 1.02 ± 0.016
29 | TCCTTGCTTT | 1.1 ± 0.025
30 | TCAATAGCCG | 1.12 ± 0.14
31 | TTTTTAGTCT | 1 ± 0.027
32 | GATGGGGTAG | 0.994 ± 0.039
33 | TGGGATAAAA | 1.01 ± 0.044
34 | TAAAGTTTGC | 0.995 ± 0.017
35 | TCGTGCTACA | 0.97 ± 0.041
36 | AATAAGGGAT | 1.01 ± 0.045
37 | TAGTAGGCGC | 0.968 ± 0.035
38 | GCAGTTGCTG | 0.999 ± 0.02
39 | TTGTGGTGTG | 0.984 ± 0.049
40 | TTGAATTTAA | 0.981 ± 0.025
41 | TTGGAGTTCG | 0.982 ± 0.013
42 | GGTATGTGTG | 1.03 ± 0.024
43 | GAAGGGTGAA | 0.9966 ± 0.0077
44 | TTGCTCTTTT | 1.019 ± 0.0013
45 | AGGCCTTCAG | 0.9915 ± 0.0083
46 | CGGGGGGCAC | 0.999 ± 0.021
47 | AAAAAATTGG | 0.989 ± 0.035
48 | GTGGTAGTGG | 0.949 ± 0.023
49 | TTCATAGGCT | 1.03 ± 0.025
50 | AACGGGCCAC | 1.079 ± 0.0077

Row | Sequence | switch fluorescence ratio
51 | ACATGTGACG | 0.98236 ± 0.00039
52 | TGGCATGTGT | 0.986 ± 0.033
53 | TTAGGGGGCT | 1 ± 0.033
54 | AAGTTAAGGT | 1.005 ± 0.002
55 | CTGGGAGGGG | 1.01 ± 0.029
56 | TGGTGATGCG | 0.998 ± 0.064
57 | AAGTGGGGAG | 1 ± 0.024
58 | TTCCTATTTT | 1 ± 0.029
59 | AGGGGGTTAA | 0.996 ± 0.017
60 | GCTAGGGGGA | 1.03 ± 0.05
61 | TTGATGCAAA | 1.01 ± 0.05
62 | GCTACCTGGT | 1.02 ± 0.013
63 | TCTATAGGGG | 1 ± 0.05
64 | GGCGGATAAG | 0.979 ± 0.013
65 | GTTGTAATGG | 1.01 ± 0.049
66 | GTGCTAGGTT | 0.984 ± 0.023
67 | TTTTTCTCGA | 0.991 ± 0.034
68 | TTCGCAGGTT | 1.05 ± 0.075
69 | ATTTAGTAGT | 0.994 ± 0.057
70 | TGCCGGGGAT | 1.01 ± 0.015
71 | TTGCATATTT | 1.05 ± 0.033
72 | CGATTTGTGT | 0.984 ± 0.011
73 | AGGGGAATAA | 0.997 ± 0.015
74 | GCTCGGTTTG | 0.97 ± 0.045
75 | TTTTAGTAGG | 1.04 ± 0.091

Row | Sequence | switch fluorescence ratio
76 | TTAAATTATC | 1.041 ± 0.0058
77 | TTTGGGGCTT | 1 ± 0.04
78 | TGGTTGCAGC | 1 ± 0.055
79 | TTTCGGGTAA | 1.34 ± 0.47
80 | ACGTTTTTGT | 1.027 ± 0.0097
81 | GGTTGACTCT | 1.01 ± 0.029
82 | ATTGTTTAAT | 1.03 ± 0.017
83 | AAAACCTTGG | 1.05 ± 0.021
84 | ACGCTTTATG | 1.03 ± 0.04
85 | TATATTATTA | 0.985 ± 0.031
86 | TTCTTGTGTT | 0.993 ± 0.042
87 | GGTTGTGGCT | 0.9883 ± 0.0059
88 | AGAGTTAAAG | 0.9917 ± 0.0072
89 | TTCGTCAATC | 2.17 ± 1.3
90 | GAGGGGTAAT | 0.986 ± 0.012
91 | GTGTATTGGG | 0.993 ± 0.025
92 | AACTGGAACT | 1.03 ± 0.032
93 | GCGTCAGGGG | 1.03 ± 0.086
94 | GGTGGACGGG | 0.974 ± 0.015
95 | GCTTCAGTGA | 1.02 ± 0.019
96 | TCTTATGGCC | 0.975 ± 0.018
97 | GACTATCTAG | 0.975 ± 0.056
98 | GGGCCATGGA | 1.05 ± 0.099
99 | ACTTACAGCT | 1.19 ± 0.017
100 | CCGGTTTTCG | 1.09 ± 0.036
